Assay results as given in patent US20240309076A1 (REGENXBIO, published 2024).
Blank lines part the entries; values can stand above or below the binder they belong to.

Molecular target: Tau and AD-associated Tau in brain tissue and brain extracts of patients with tauopathy (AD, PSP, PiD) (human, UniProt P10636-8 2-441, limits assumed, pathologically hyperphosphorylated and aggregated; the sites are not specified)
Experiment: cell-based or functional assay

Chain of Tau and AD-associated Tau in brain tissue and brain extracts of patients with tauopathy (AD, PSP, PiD) (P10636 other isoform, or with tags, fused parts or gaps limits assumed): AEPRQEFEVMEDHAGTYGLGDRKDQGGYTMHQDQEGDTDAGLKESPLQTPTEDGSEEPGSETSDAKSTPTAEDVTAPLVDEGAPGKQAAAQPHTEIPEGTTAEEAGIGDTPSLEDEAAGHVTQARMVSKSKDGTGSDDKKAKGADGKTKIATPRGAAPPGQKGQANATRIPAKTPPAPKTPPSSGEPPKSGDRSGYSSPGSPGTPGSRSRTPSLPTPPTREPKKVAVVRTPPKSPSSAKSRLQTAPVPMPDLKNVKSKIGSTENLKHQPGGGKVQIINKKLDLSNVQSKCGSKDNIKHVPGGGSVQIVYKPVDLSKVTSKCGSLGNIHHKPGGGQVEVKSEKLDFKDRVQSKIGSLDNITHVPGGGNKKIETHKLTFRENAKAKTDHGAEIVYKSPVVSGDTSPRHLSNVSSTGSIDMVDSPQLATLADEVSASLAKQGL

IC50 of Tau aggregation (integrated FRET density) in HEK293T Tau biosensor cells after immunodepletion of AD brain homogenate: 6.5 µg/mL
B1: NI-502.4P3 (antibody, V domains shown)
VH: EVQLVQSGAEVKKPGESLKISCKVSGYDFSKYWIGWVRQMPGKGLEWMGLIYPGDSDTRYSPSLEGQVSISADKSISAAYLQFSSLKASDSAMYYCVRKGYSAYLGGWFDPWGQGTLVTVSS
VL: DIQLTQSPDSLAASLGERVTINCRSSQNIFYNSNNKNFLAWYQQKAGQSPKLLIYWASTRESGVPDRFSGSGSGTDFTLTISGLQAGDVAVYFCQQYFTDAPTFGGGTKVEIK

IC50 of Tau aggregation (integrated FRET density) in HEK293T Tau biosensor cells after immunodepletion of AD brain homogenate: 7.1 µg/mL
B2: NI-502.8H1 (antibody, V domains shown)
VH: EVQLVESGGGLVQPGGSLRLSCAASGFTFSIYTMSWVRQAPGKGLEWVSAILSDGSTYYADSVEGRFTISRDNSKTTLYLQMNSLTAEDTAVYYCTKRVEGSFRGWGQGTLVTVSS
VL: EIVMTQSPGTLSLSPGESATLSCRASQSVSTTYLAWYQQKPGQAPRLLIYGASSRATGIPDRFSGSGSGTDFTLTISRLEPEDFAVYYCQQYGGSRLITFGQGTRLEIK
